Experimental data published in patent US9932479B2, “Dyes and compositions, and processes for using same in analysis of protein aggregation and other applications” (Enzo Biochem, Inc., priority 2009, dated 2018).

Molecular target: T1, ß-lactoglobulin (Bos taurus, UniProt P02754)
T1 sequence (P02754 17-178): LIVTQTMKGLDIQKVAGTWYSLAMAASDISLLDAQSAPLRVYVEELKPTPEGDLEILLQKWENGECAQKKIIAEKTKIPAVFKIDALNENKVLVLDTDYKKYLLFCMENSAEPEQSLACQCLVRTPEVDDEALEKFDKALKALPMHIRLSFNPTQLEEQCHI
Assay: Chaperone activity assay: heat-induced BLG aggregation, Tol3/S25 readout
Type: biochemical
Conditions: 0.4 mg/ml HSP 27, 8 mg/ml ß-lactoglobulin (mass ratio 1:20), 68° C.
Description: Aggregation of ß-lactoglobulin was monitored in the presence or absence of the chaperone HSP 27. Aggregation of 8 mg/ml ß-lactoglobulin was monitored using 1.25 μM Tol3 and 1.25 μM S25 in PBS, pH 7.4 with 2.5 mM EDTA and 0.05% sodium azide. When the chaperone HSP 27 was added it was added to a final concentration of 0.4 mg/ml. HSP 27 was also run in the absence of R-lactoglobulin as a control. Aggregation was initiated by heating the protein solution to 68° C. in a 96 well half-volume clear plate (Biomol international, Inc). The fluorescence intensity was then recorded every 2 minutes, with shaking between reads. The excitation wavelength was set to 550 nm and the emission was set to 610 nm on a BMG Fluorstar plate reader. The fluorescence intensity of the starting point was subtracted from the remaining points. […] Since Hsp 27 is binding with unfolded BLG intermediate, thus preventing protein aggregation, these styryl cyanine dyes are detecting protein aggregation, as opposed to unfolding.

**Q.** Hsp 27: heat shock protein, chaperone was tested. Which “Effect on heat-induced aggregation of BLG” value did it give?
**A.** significantly prevent the aggregation of BLG
